The experiment has as its target coxsackievirus B5 Faulkner strain, purified virus (wild type) (coxsackievirus B5 (CV-B5/Faulkner)). Briefly: SPR. In general terms: SPR reads the build-up and loss of mass on a sensor chip optically.

A word on the Kd: it is the concentration at which binding is half-saturated.

B1: decay accelerating factor (DAF) protein with tag (receptor)
chain: DCGLPPDVPNAQPALEGRTSFPEDTVITYKCEESFVKIPGEKDSVICLKGSQWSDIEEFCNRSCEVPTRLNSASLKQPYITQNYFPVGTVVEYECRPGYRREPSLSPKLTCLQNLKWSTAVEFCKKKSCPNPGEIRNGQIDVPGGILFGATISFSCNTGYKLFGSTSSFCLISGSSVQWSDPLPECREIYCPAPPQIDNGIIQGERDHYGYRQSVTYACNKGFTMIGEHSIYCTVNNDEGEWSGPPPECRGKSLTSKVPPTVQKPTTVNVPTTEVSPTSQKTTTKTTTPNAQATRSTPVSRTTKHFHETTPNKGSGTTS
B1 registered a Kd of 5.69 nM. In other words, the single-digit nanomolar range.

The values are drawn from article PMC12861664 (2025).
